Test results reported in PMC9676403, “Crystal structure of the collagen prolyl 4-hydroxylase (C-P4H) catalytic domain complexed with PDI: Toward a model of the C-P4H α2β2 tetramer” (The Journal of Biological Chemistry, 2022).

B1: α-subunit of human C-P4H-II lacking the N-terminal dimerization domain, construct C-P4H-II-Δ140 (domain or fragment, UniProt O15460-1 141-535, looked up)
chain: DTYRLDPGTISRGELPGTKYQAMLSVDDCFGMGRSAYNEGDYYHTVLWMEQVLKQLDAGEEATTTKSQVLDYLSYAVFQLGDLHRALELTRRLLSLDPSHERAGGNLRYFEQLLEEEREKTLTNQTEAELATPEGIYERPVDYLPERDVYESLCRGEGVKLTPRRQKRLFCRYHHGNRAPQLLIAPFKEEDEWDSPHIVRYYDVMSDEEIERIKEIAKPKLARATVRDPKTGVLTVASYRVSKSSWLEEDDDPVVARVNRRMQHITGLTVKTAELLQVANYGVGGQYEPHFDFSRNDERDTFKHLGTGNRVATFLNYMSDVEAGGATVFPDLGAAIWPKKGTAVFWYNLLRSGEGDYRTRHAACPVLVGCKWVSNKWFHERGQEFLRPCGSTEVD
notes: collagen prolyl 4-hydroxylase α(II) subunit, human, isoform-IIb splice variant (exon 12b), first 140 residues deleted, starts at Asp141; holds the PSB and CAT domains; codon-optimized gene; also called PSB and CAT; Hs-α(II) from D141; source: E. coli K12, polycistronic CyDisCo plasmid, coexpressed with β/PDI and yeast Erv1; purified (Talon IMAC, HiTrap Q, Superdex 200); not shown: His6, …
B2: α-subunit of human C-P4H-II truncated to the catalytic (CAT) domain, construct C-P4H-II-Δ281 (domain or fragment, UniProt O15460-1 282-535, looked up)
chain: DYLPERDVYESLCRGEGVKLTPRRQKRLFCRYHHGNRAPQLLIAPFKEEDEWDSPHIVRYYDVMSDEEIERIKEIAKPKLARATVRDPKTGVLTVASYRVSKSSWLEEDDDPVVARVNRRMQHITGLTVKTAELLQVANYGVGGQYEPHFDFSRNDERDTFKHLGTGNRVATFLNYMSDVEAGGATVFPDLGAAIWPKKGTAVFWYNLLRSGEGDYRTRHAACPVLVGCKWVSNKWFHERGQEFLRPCGSTEVD
notes: residues 534-535 are named as the C-terminal residues; codon-optimized gene; Linked to PDI in the crystal by intersubunit disulfide bridges (Cys311-Cys397, Cys529-Cys53); also called Hs-α(II) from D282; source: E. coli K12, polycistronic CyDisCo plasmid, coexpressed with β/PDI and yeast Erv1; purified (Talon IMAC, HiTrap Q, Superdex 200)
B3: protein disulfide isomerase, the β-subunit of C-P4H (enzyme)
chain: not shown
notes: protein disulfide isomerase, human, called the intact or complete β/PDI subunit, without a tag; codon-optimized gene; the crystal model starts at Glu21; Made in the E. coli cytoplasm, so probably without the signal peptide (my surmise); also called PDI; β/PDI subunit; source: E. coli K12, polycistronic CyDisCo plasmid, coexpressed with the α-subunit and yeast Erv1; co-purified with the His-tagged …
B4: α-subunit of mature human C-P4H-II (enzyme, UniProt O15460-1 22-535, looked up)
chain: EFFTSIGHMTDLIYAEKELVQSLKEYILVEEAKLSKIKSWANKMEALTSKSAADAEGYLAHPVNAYKLVKRLNTDWPALEDLVLQDSAAGFIANLSVQRQFFPTDEDEIGAAKALMRLQDTYRLDPGTISRGELPGTKYQAMLSVDDCFGMGRSAYNEGDYYHTVLWMEQVLKQLDAGEEATTTKSQVLDYLSYAVFQLGDLHRALELTRRLLSLDPSHERAGGNLRYFEQLLEEEREKTLTNQTEAELATPEGIYERPVDYLPERDVYESLCRGEGVKLTPRRQKRLFCRYHHGNRAPQLLIAPFKEEDEWDSPHIVRYYDVMSDEEIERIKEIAKPKLARATVRDPKTGVLTVASYRVSKSSWLEEDDDPVVARVNRRMQHITGLTVKTAELLQVANYGVGGQYEPHFDFSRNDERDTFKHLGTGNRVATFLNYMSDVEAGGATVFPDLGAAIWPKKGTAVFWYNLLRSGEGDYRTRHAACPVLVGCKWVSNKWFHERGQEFLRPCGSTEVD
notes: collagen prolyl 4-hydroxylase α(II) subunit, human, isoform-IIb splice variant (exon 12b); the complex is called mature C-P4H-II; codon-optimized gene; also called α(II); Hs-α(II); source: E. coli K12, polycistronic CyDisCo plasmid, coexpressed with β/PDI and yeast Erv1; purified (Talon IMAC, HiTrap Q, Superdex 200); not shown: His6, N-terminal, kept

Columns and labels:
[1] = molecular target: B3; assay: co-purification; His6-tagged α-subunit coexpressed with untagged β/PDI in E. coli (CyDisCo); Talon IMAC from the lysate, HiTrap Q, Superdex 200, 4 °C, Tris pH 7.8; subunits found in the purified sample by SDS-PAGE and MS; details: partners not purified
[2] = molecular target: B3; assay: SEC-MALS; purified, frozen-thawed co-expressed complex on Superdex 200 Increase 10/300 GL in SEC buffer (50 mM Tris, pH 7.8, 50 mM NaCl, 100 mM glycine); details: both partners purified
[3] = molecular target: B4; assay: co-purification; His6-tagged α-subunit coexpressed with untagged β/PDI in E. coli (CyDisCo); Talon IMAC from the lysate, HiTrap Q, Superdex 200, 4 °C, Tris pH 7.8; subunits found in the purified sample by SDS-PAGE and MS; details: partners not purified
[4] = molecular target: the molecule itself; assay: SEC-MALS; purified, frozen-thawed co-expressed complex on Superdex 200 Increase 10/300 GL in SEC buffer (50 mM Tris, pH 7.8, 50 mM NaCl, 100 mM glycine)

B1
binding result [1]: binds

B2
binding result [2]: binds

B3
binding result [3]: binds

B4
binding result [4]: binds
